According to publication PMC5923425, “Structural analysis of human ARS2 as a platform for co-transcriptional RNA sorting” (Nature Communications, 2018):
Each block holds one molecule with its values, some of them ahead of it.

B1: full-length NCBP3 (residues 1–620) (natural protein, human, UniProt Q53F19-1 1-620, looked up)
chain: MAAVRGLRVSVKAEAPAGPALGLPSPEAESGVDRGEPEPMEVEEGELEIVPVRRSLKELIPDTSRRYENKAGSFITGIDVTSKEAIEKKEQRAKRFHFRSEVNLAQRNVALDRDMMKKAIPKVRLETIYICGVDEMSTQDVFSYFKEYPPAHIEWLDDTSCNVVWLDEMTATRALINMSSLPAQDKIRSRDASEDKSAEKRKKDKQEDSSDDDEAEEGEVEDENSSDVELDTLSQVEEESLLRNDLRPANKLAKGNRLFMRFATKDDKKELGAARRSQYYMKYGNPNYGGMKGILSNSWKRRYHSRRIQRDVIKKRALIGDDVGLTSYKHRHSGLVNVPEEPIEEEEEEEEEEEEEEEEDQDMDADDRVVVEYHEELPALKQPRERSASRRSSASSSDSDEMDYDLELKMISTPSPKKSMKMTMYADEVESQLKNIRNSMRADSVSSSNIKNRIGNKLPPEKFADVRHLLDEKRQHSRPRPPVSSTKSDIRQRLGKRPHSPEKAFSSNPVVRREPSSDVHSRLGVPRQDSKGLYADTREKKSGNLWTRLGSAPKTKEKNTKKVDHRAPGAEEDDSELQRAWGALIKEKEQSRQKKSRLDNLPSLQIEVSRESSSGSEAES
notes: human NCBP3, full length, residues 1-620, cloned into pFASTBac HTb; also called NCBP3^1–620; source: High Five insect cells, purified; not shown: His6, N-terminal, cleaved
B4: ARS2^171–270+408–763 (domain or fragment, human)
chain 1: RYNDYKLDFRRQQMQDFFLAHKDEEWFRSKYHPDEVGKRRQEARGALQNRLRVFLSLMETGWFDNLLLDIDKADAIVKMLDAAVIKMEGGTENDLRILEQ
chain 2: GLECKPRPLHKTCSLFMRNIAPNISRAEIISLCKRYPGFMRVALSEPQPERRFFRRGWVTFDRSVNIKEICWNLQNIRLRECELSPGVNRDLTRRVRNINGITQHKQIVRNDIKLAAKLIHTLDDRTQLWASEPGTPPLPTSLPSQNPILKNITDYLIEEVSAEEEELLGSSGGAPPEEPPKEGNPAEINVERDEKLIKVLDKLLLYLRIVHSLDYYNTCEYPNEDEMPNRCGIIHVRGPMPPNRISHGEVLEWQKTFEEKLTPLLSVRESLSEEEAQKMGRKDPEQEVEKFVTSNTQELGKDKWLCPLSGKKFKGPEFVRKHIFNKHAEKIEEVKKEVAFFNNFLTDAKRPALPE
notes: human ARS2 (SRRT) isoform-e, residues 171-270, cloned into pETM11; human ARS2 (SRRT) isoform-e, residues 408-763, cloned for co-expression into pDUET and pET15b; Two co-expressed fragments of one protein that fold into one core; also called crystallised core; source: E. coli Rosetta 2, two fragments co-expressed, purified; not shown: His6, N-terminal, cleaved

Columns and labels:
[1] = biological target: CBP80 (NCBP1) (endogenous) (UniProt Q09161); test: EGFP pull down, LC–MS/MS (AP–MS, TMT labelled); conditions: HEK 293T/17 cells; three independent affinity purifications per bait, except ARS2 wt in b (one pull down); read off a plot
Sequence of CBP80 (NCBP1) (endogenous) (Q09161 whole entry): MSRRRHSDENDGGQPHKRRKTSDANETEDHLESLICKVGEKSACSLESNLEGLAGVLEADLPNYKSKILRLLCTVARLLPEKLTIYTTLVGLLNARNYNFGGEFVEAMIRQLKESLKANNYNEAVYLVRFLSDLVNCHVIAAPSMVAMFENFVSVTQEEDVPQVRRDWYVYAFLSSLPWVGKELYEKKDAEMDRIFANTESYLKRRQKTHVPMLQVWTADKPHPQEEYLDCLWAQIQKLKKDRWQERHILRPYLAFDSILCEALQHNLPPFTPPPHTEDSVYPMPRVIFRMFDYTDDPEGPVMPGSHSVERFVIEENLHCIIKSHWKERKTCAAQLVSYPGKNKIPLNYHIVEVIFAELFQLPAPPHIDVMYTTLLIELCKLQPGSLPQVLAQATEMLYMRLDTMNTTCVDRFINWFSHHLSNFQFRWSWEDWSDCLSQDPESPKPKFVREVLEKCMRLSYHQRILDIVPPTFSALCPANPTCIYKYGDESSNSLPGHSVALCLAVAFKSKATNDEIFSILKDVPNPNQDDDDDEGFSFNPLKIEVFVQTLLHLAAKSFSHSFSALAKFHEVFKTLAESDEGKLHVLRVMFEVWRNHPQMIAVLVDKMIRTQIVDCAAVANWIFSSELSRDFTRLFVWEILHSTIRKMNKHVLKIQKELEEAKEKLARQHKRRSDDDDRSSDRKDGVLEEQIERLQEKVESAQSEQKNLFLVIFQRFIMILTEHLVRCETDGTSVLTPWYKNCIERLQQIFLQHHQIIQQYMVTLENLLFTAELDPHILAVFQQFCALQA

[2] = biological target: CBP20 (NCBP2) (endogenous) (UniProt P52298); test: EGFP pull down, LC–MS/MS (AP–MS, TMT labelled); conditions: HEK 293T/17 cells; three independent affinity purifications per bait, except ARS2 wt in b (one pull down); read off a plot
Sequence of CBP20 (NCBP2) (endogenous) (P52298 whole entry): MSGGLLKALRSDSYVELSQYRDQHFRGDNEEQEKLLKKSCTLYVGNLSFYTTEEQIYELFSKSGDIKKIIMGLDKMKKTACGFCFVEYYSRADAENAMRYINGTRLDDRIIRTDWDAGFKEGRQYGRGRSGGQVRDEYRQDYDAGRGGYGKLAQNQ

PHAX (endogenous) = PHAX (endogenous) (UniProt Q9H814); test: EGFP pull down, LC–MS/MS (AP–MS, TMT labelled); conditions: HEK 293T/17 cells; three independent affinity purifications per bait, except ARS2 wt in b (one pull down); read off a plot
Sequence of PHAX (endogenous) (Q9H814 whole entry): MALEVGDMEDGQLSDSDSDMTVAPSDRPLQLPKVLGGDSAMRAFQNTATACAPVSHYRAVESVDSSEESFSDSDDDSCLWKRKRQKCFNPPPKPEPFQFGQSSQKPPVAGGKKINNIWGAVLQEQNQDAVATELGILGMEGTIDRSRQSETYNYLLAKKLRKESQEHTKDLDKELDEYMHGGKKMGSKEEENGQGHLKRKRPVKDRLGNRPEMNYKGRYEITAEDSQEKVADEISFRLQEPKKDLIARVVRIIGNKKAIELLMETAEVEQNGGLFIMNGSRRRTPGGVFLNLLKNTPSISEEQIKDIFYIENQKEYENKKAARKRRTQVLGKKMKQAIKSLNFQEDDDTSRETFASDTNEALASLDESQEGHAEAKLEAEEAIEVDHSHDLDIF

GST-tagged ARS2^147–871 = biological target: T1, GST-tagged ARS2^147–871 (human, UniProt Q9BXP5-4 147-871); test: pull-down; GST-tagged ARS2 147–871 on glutathione sepharose, NCBP3 constructs added, in the absence of the cap analogue; conditions: both partners purified
T1 construct: human ARS2 (SRRT) isoform-e, residues 147-871; The cloning of the GST fusion is not described; also called GST-ARS2; source: E. coli Rosetta 2 (said of all constructs but full-length NCBP3); held on glutathione sepharose
T1 sequence (looked up): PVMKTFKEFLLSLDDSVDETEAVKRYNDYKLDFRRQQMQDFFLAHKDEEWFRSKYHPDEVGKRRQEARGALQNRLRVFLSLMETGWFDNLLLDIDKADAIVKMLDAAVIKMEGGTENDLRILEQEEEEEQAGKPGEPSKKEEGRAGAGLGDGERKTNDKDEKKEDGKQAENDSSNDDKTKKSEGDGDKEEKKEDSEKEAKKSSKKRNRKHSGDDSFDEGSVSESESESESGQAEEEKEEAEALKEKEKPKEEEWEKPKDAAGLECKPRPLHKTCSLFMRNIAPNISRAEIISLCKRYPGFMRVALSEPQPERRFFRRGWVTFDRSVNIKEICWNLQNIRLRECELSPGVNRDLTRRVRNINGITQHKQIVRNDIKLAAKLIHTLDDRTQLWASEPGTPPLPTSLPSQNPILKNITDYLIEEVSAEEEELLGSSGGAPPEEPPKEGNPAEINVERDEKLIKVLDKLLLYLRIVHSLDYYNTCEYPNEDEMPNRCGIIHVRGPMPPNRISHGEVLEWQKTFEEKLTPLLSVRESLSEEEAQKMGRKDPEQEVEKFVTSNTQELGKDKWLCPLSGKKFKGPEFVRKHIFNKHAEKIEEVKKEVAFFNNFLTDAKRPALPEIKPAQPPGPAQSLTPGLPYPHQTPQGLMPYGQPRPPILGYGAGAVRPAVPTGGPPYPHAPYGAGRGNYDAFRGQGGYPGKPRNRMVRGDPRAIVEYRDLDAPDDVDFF

ARS2^147–871 [3] = biological target: T2, ARS2^147–871 (human, UniProt Q9BXP5-4 147-871); test: SEC; purified proteins mixed, Superdex 200, 120 mM NaCl, 1 mM TCEP, 20 mM HEPES pH 7.8; in the absence of m7GTP; fractions on SDS-PAGE; conditions: both partners purified
T2 construct: human ARS2 (SRRT) isoform-e, 871 residues, residues 147-871, cloned into pETM11; also called hARS2; SRRT; source: E. coli Rosetta 2, purified (Ni-Sepharose, TEV cleavage, HiTrap Q, heparin if necessary, SEC); not shown: His6, N-terminal, cleaved
T2 sequence (looked up): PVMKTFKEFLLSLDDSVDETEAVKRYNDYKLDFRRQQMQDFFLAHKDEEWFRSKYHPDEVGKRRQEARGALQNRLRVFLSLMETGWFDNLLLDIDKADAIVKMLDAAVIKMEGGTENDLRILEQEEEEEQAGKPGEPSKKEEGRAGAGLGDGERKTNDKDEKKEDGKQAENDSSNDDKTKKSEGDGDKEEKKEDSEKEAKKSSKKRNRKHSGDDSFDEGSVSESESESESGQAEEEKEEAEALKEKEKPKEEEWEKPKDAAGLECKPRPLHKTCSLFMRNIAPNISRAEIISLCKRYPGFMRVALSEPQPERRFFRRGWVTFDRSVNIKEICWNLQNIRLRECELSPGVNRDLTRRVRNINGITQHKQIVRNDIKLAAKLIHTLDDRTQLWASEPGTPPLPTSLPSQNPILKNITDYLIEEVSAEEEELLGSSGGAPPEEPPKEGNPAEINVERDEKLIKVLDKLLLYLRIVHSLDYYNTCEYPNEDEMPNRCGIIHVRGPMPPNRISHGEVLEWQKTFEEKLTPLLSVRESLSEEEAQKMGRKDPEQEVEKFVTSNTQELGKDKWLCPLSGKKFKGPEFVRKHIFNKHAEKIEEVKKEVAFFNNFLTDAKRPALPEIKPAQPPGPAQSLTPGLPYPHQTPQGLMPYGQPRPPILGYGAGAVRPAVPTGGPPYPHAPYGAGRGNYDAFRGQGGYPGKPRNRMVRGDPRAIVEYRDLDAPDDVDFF

ARS2^147–871 [4] = biological target: T2, ARS2^147–871; test: ITC; MicroCal ITC200, 25 °C, ARS2 constructs with NCBP3 1–282; buffer containing 250 mM NaCl; injections of 2.5 µL; conditions: both partners purified
[5] = biological target: B1; test: pull-down; purified recombinant NCBP3 constructs immobilised on m7GTP sepharose, incubated with CBP80 and/or wild type or mutant ARS2; eluted fractions on Coomassie-stained SDS-PAGE; conditions: both partners purified
ARS2^147–270+494–763 = biological target: T3, ARS2^147–270+494–763 (human, UniProt Q9BXP5-4 147-270; Q9BXP5-4 494-763); test: ITC; MicroCal ITC200, 25 °C, ARS2 construct with FARB; not marked high salt: 20 mM HEPES, 120 mM, 2 mM TCEP pH 7.8; single-site fit; conditions: both partners purified
T3 construct: human ARS2 (SRRT) isoform-e, residues 147-270, cloned into pETM11; human ARS2 (SRRT) isoform-e, residues 494-763 (lacks the RRM domain), cloned for co-expression into pDUET and pET15b; Lacks the unstructured regions and the RRM domain; source: E. coli Rosetta 2, two fragments co-expressed, purified; not shown: His6, N-terminal, cleaved
T3 sequence (looked up) 1: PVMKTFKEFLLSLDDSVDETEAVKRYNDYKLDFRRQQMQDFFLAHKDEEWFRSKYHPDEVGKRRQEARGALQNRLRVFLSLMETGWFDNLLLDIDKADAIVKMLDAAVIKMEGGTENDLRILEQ
T3 sequence (looked up) 2: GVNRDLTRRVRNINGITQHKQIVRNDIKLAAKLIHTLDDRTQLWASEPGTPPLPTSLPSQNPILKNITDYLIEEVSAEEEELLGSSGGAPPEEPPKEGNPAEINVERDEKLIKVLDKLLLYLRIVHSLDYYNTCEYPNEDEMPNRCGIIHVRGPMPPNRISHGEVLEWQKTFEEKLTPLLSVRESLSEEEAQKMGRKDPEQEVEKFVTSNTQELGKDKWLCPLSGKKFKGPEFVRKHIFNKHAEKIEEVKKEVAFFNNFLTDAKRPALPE

ARS2^147–871 [6] = biological target: T2, ARS2^147–871; test: ITC; MicroCal ITC200, 25 °C, ARS2 constructs with FLASH peptides; high salt (HS): buffer containing 250 mM NaCl; single-site fit; which partner was injected is not told; conditions: both partners purified
ARS2^171–270+408–763 = biological target: B4; test: as above; conditions: both partners purified

binding result [5]: binds
B3: ARS2^147–270+408–763ΔloopB (domain or fragment, human)
chain 1: PVMKTFKEFLLSLDDSVDETEAVKRYNDYKLDFRRQQMQDFFLAHKDEEWFRSKYHPDEVGKRRQEARGALQNRLRVFLSLMETGWFDNLLLDIDKADAIVKMLDAAVIKMEGGTENDLRILEQ
chain 2: GLECKPRPLHKTCSLFMRNIAPNISRAEIISLCKRYPGFMRVALSEPQPERRFFRRGWVTFDRSVNIKEICWNLQNIRLRECELSPGVNRDLTRRVRNINGITQHKQIVRNDIKLAAKLIHTLDDRTQLWASEPGTPPLPTSLPSQNPILKNITDYLIEEGSGSGSERDEKLIKVLDKLLLYLRIVHSLDYYNTCEYPNEDEMPNRCGIIHVRGPMPPNRISHGEVLEWQKTFEEKLTPLLSVRESLSEEEAQKMGRKDPEQEVEKFVTSNTQELGKDKWLCPLSGKKFKGPEFVRKHIFNKHAEKIEEVKKEVAFFNNFLTDAKRPALPE
notes: human ARS2 (SRRT) isoform-e, residues 147-270; human ARS2 (SRRT) isoform-e, from 408 to E567, before the deleted loop B; linker that replaces loop B (568-598); human ARS2 (SRRT) isoform-e, from E599 to 763, after the deleted loop B; the crystallisation methods print ∆566–598GSGSGS; also called ARS2^147–270+408–763Δ568–598 (Δloop B); Human ARS2 147-270+408-763 Δloop B: Δ568–598 E567–GSGSGS–E599; …

Kd (ARS2^147–871 [6]): 5.5 µM
B6: FLASH^921–946 peptide (peptide, UniProt Q9UKL3 921-946, looked up)
peptide: EADTCKNSPLDELEEGEIRSDSETSK
notes: FLASH (FLICE-associated huge protein), residues 921-946, holds FARB (931-943); source: synthetic peptide, bought: GeneScript

Further lines, the molecule ahead of its results:

Molecule: EGFP–ARS2 wt (from UniProt Q9BXP5-4) R854A; R859A; F871A
other: log2 (fold change) [1]: -4
other: log2 (fold change) [2]: -3.9
other: log2 (fold change) (PHAX (endogenous)): -2.6

Molecule: B1
binding result (GST-tagged ARS2^147–871): binds
binding result (ARS2^147–871 [3]): binds

B2: NCBP3^1–282 (domain or fragment, human, UniProt Q53F19-1 1-282, looked up)
chain: MAAVRGLRVSVKAEAPAGPALGLPSPEAESGVDRGEPEPMEVEEGELEIVPVRRSLKELIPDTSRRYENKAGSFITGIDVTSKEAIEKKEQRAKRFHFRSEVNLAQRNVALDRDMMKKAIPKVRLETIYICGVDEMSTQDVFSYFKEYPPAHIEWLDDTSCNVVWLDEMTATRALINMSSLPAQDKIRSRDASEDKSAEKRKKDKQEDSSDDDEAEEGEVEDENSSDVELDTLSQVEEESLLRNDLRPANKLAKGNRLFMRFATKDDKKELGAARRSQYYMK
notes: cloned into pETM11; also called N-terminal region of NCBP3; source: E. coli Rosetta 2, purified; not shown: His6, N-terminal, cleaved
binding result (GST-tagged ARS2^147–871): binds
binding result (ARS2^147–871 [4]): binds

Molecule: B4
binding result [5]: binds

B5: FARB (FLASH–ARS2-binding region) peptide of FLASH, residues 931–943 (peptide)
peptide: DELEEGEIRSDSE
notes: FLASH (FLICE-associated huge protein), residues 931-943; also called FLASH^931–943; source: synthetic peptide, bought: GeneScript
Kd (ARS2^147–270+494–763): 0.5 µM
Kd (ARS2^147–871 [6]): 5.1 µM
Kd (ARS2^171–270+408–763): 3.8 µM
